Test results from paper PMC7954794, “Protein context shapes the specificity of SH3 domain-mediated interactions in vivo” (Nature Communications, 2021).

B1: E13E (protein, UniProt P15891 2-592, looked up)
Actin-binding protein: ALEPIDYTTHSREIDAEYLKIVRGSDPDTTWLIISPNAKKEYEPESTGSSFHDFLQLFDETKVQYGLARVSPPGSDVEKIIIIGWCPDSAPLKTRASFAANFAAVANNLFKGYHVQVTARDEDDLDENELLMKISNAAGARYSIQTSSKQQGKASTPPVKKSFTPSKSPAPVSKKEPVKTPSPAPAAKISSRVNDNNDDDDWNEPELKERDFDQAPLKPNQSSYKPIGKIDLQKVIAEEKAKEDPRLVQKPTAAGSKIDPSSDIANLKNESKLKRDSEFNSFLGTTKPPSMTESSLKNDDDKVIKGFRNEKSPAQLWAERKAKQNSGNAETKAEAPKPEVPEDEPEGEPDVKDLKSKFEGLAASEKEEEEMENKFAPPPKKSEPTIISPKPFSKPQEPVKAEEAEQPKTDYKKIGNPLPGMHIEADNEEEPEENDDDWDDDEDEAAQPPLPSRNVASGAPVQKEEPEQEEIAPSLPSRNSIPAPKQEEAPEQAPEEEIEEEAEEAAPQLPSRSSAAPPPPPRRATPEKKPKENPWATAEYDYDAAEDNELTFVENDKIINIEFVDDDWWLGELEKDGSKGLFPSNYVSLGN
modifications: synonymous codon change E13E in SH3
B2: Abp1SH3 in Abp1: Abp1 with its own SH3 reintroduced by editing (control) (protein)
chain: MALEPIDYTTHSREIDAEYLKIVRGSDPDTTWLIISPNAKKEYEPESTGSSFHDFLQLFDETKVQYGLARVSPPGSDVEKIIIIGWCPDSAPLKTRASFAANFAAVANNLFKGYHVQVTARDEDDLDENELLMKISNAAGARYSIQTSSKQQGKASTPPVKKSFTPSKSPAPVSKKEPVKTPSPAPAAKISSRVNDNNDDDDWNEPELKERDFDQAPLKPNQSSYKPIGKIDLQKVIAEEKAKEDPRLVQKPTAAGSKIDPSSDIANLKNESKLKRDSEFNSFLGTTKPPSMTESSLKNDDDKVIKGFRNEKSPAQLWAERKAKQNSGNAETKAEAPKPEVPEDEPEGEPDVKDLKSKFEGLAASEKEEEEMENKFAPPPKKSEPTIISPKPFSKPQEPVKAEEAEQPKTDYKKIGNPLPGMHIEADNEEEPEENDDDWDDDEDEAAQPPLPSRNVASGAPVQKEEPEQEEIAPSLPSRNSIPAPKQEEAPEQAPEEEIEEEAEEAAPQLPSRSSAAPPPPPRRATPEKKPKENPWATAEYDYDAAEDNELTFVENDKIINIEFVDDDWWLGELEKDGSKGLFPSNYVSLGN
modifications: left off: DHFR F[1,2], C-terminal, kept | FLAG, C-terminal, kept

How the values were obtained:
Type in all cases: cell-based, Saccharomyces cerevisiae
Hua2 [1] = experiment: Deep mutational scanning of Abp1 SH3, Abp1-Hua2 DHFR-PCA (DMS score)
Procedure, shortened: (§1)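 Each SH3 position is mutated to all possible codons within endogenous ABP1; the pooled strains are crossed to DHFR F[3]-tagged partners, diploids are enriched in NAT/HPH media, and two 72 h complementation selections at 30 °C follow, with Illumina counts of the locus yielding the score.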

Lsb3 = experiment: Deep mutational scanning of Abp1 SH3, Abp1-Lsb3 DHFR-PCA (DMS score); details: Abp1-Lsb3 DHFR-PCA; WT = 0; Fig. S3C-D
Procedure, shortened: as §1

Hua2 [2] = experiment: Low-throughput liquid DHFR-PCA of selected Abp1 SH3 mutants (Fig. S3F); details: average
Description: Liquid DHFR-PCA low-throughput experiments were performed to validate the PPIs identified as affected by the SH3 domain deletions in the high-throughput solid DHFR-PCA screen (256 PPIs weaker or lost and 116 PPIs stronger or gained following domain deletions). Mating and the diploid selection were performed as described for the large-scale experiment, with the exception that the plates were in 384 formats. Following the second diploid selection, diploid cells were inoculated in a 96 v-shaped well plate using a robotically manipulated 96 pin tool in a synthetic complete medium with MSG at pH 6.0 with NAT and HPH. After 48 h of growth, optical density (OD) was read using a TECAN Infinite F200 Pro, and dilutions to 1 OD in sterile nanopure water were prepared. Cells were then diluted to 0.1 OD by combining 25 µl of cell suspension at OD = 1 and 225 µl of PCA selection media without agar in a 96-wells plate. Plates were incubated at 30 °C in a TECAN Infinite M Nano and OD was monitored each 15 min for 72 h. […]
Selected non-conserved positions (E6 , E13, N15 and N27) sensitivities to mutations for the Abp1-Hua2 PPI were tested in a low -throughput liquid DHFR -PCA assay. The growth of the mutants in the low -throughput experiment (average of four replicates of the total OD for each growth curve, y axis ) is compared to the mutants DMS score (x axis). […]

Abp1 (1xFLAG) = experiment: Western blot expression level of Abp1 SH3 mutants (Fig. S3C-D)
Description: Precultures of yeast cells expressing baits fused with the DHFR F[1,2]-FLAG were grown overnight at 30 °C with agitation in synthetic complete medium. The next day, cells were expanded in synthetic complete medium to reach their exponential phase (OD600 of around 1.0), pelleted, and frozen at −80 °C. The equivalent of fifty OD600 of cells was resuspended in ice-cold yeast lysis buffer (10 mM Tris-HCl pH 7.4, 150 mM NaCl, 0.5 mM EDTA (Millipore Sigma), 1% Triton X-100 (Millipore Sigma), and one cOmplete Mini Protease Inhibitor Cocktail (Millipore Sigma) per 10 mL) with […] glass beads (Millipore Sigma) and disrupted at 4 °C by 10 cycles of 2 min vortexing and 2 min cooldown. The equivalent of […] of lysed cells was used for the immunoprecipitation of the bait proteins using FLAG-M2 agarose beads (Millipore Sigma). The beads were incubated with the cell lysates for 120 min at 4 °C with a slow rotation, followed by three washes with the yeast lysis buffer.
Protein extracts and affinity-purified baits from yeast and human lysed cells were migrated on 10% polyacrylamide gels. The separated proteins were then transferred to nitrocellulose membranes. Validation of correct protein loading was done with ponceau staining of the membranes. Before the primary antibody incubations, membranes were blocked in 5% milk. Protein signals were detected on an Amersham Imager 600RGB (GE Healthcare) following the incubation of the membranes with the appropriate HRP-conjugated secondary antibodies and the Clarity Western ECL Substrate (Bio-Rad). The antibodies used in this study are M2-HRP (A8592, Sigma, 1/50,000), rabbit anti-FLAG (F7425, Sigma, 1/1000), PAK (SC-881, Santa Cruz, 1/200), p130cas/BCAR1 (SC-860, Santa Cruz, 1/200), actin (Cell Signaling Technology, 1/2000), anti-mouse HRP (Cell Signaling Technology, 1/10,000) and anti-rabbit HRP (Cell Signaling Technology, 1/10,000). The quantification of the WB signals was performed with the Amersham Imager 600 analysis software (GE Healthcare). […]
C, WB comparing expression levels of selected Abp1 SH3 mutants with WT Abp1. An asterisk represents a stop codon, which inhibits translation of the 1xFLAG epitope. D, Quantification of the relative level of expression of Abp1 SH3 mutants by WB as in C, (log2 of Abp1 SH3 mutant/Abp1 WT ratio, WB relative level of expression of 0 for WT Abp1) compared to their DMS scores (Hua2 (left): Pearson’s r = -0.34, p-value = 0.46, Lsb3 […]
(right): Pearson’s r = -0.81, p-value = 0.03). […]
Most […]
interface residues sensitive to mutations, such as Y7, E13, E16, V3 1, D32, D34, L48 and Y53, specifically affect Hua2 PPI. See also Supplementary Table 4.

Abp1 PPIs = experiment: DHFR-PCA of Abp1 SH3-swapped baits (Fig. 2B-D, S2C, S2F); details: DHFR-PCA, quadruplicate
Procedure, shortened: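 Interactions were scored by DHFR protein-fragment complementation. DHFR F[1,2]-tagged Abp1 strains, whose SH3 was swapped for yeast or human ortholog domains, were crossed on YPD at 30 °C for 48 h with a 1536-format array of 575 prey-DHFR F[3] strains and 40 negatives, giving four replicates per pair. PCA selection lasted 4 days after double diploid selection.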

[3] = system: growth of ABP1 SH3-swapped strains in hygromycin B; experiment: Hygromycin B resistance assay in liquid culture (Fig. S2E); details: 37 °C, 24 h, n = 3
Description: For the hygromycin B resistance assays in liquid cultures, the ABP1 SH3 swapped strains including the ABP1 SH3-deleted and ABP1 KO strain were grown overnight at 30 °C as precultures in synthetic complete medium with MSG. The next day, OD was measured with a TECAN Infinite F200 Pro plate reader, and the cultures were diluted to OD of 1.0 in sterile nanopure water. The different strains were further diluted at 0.1 OD by adding 25 µl of cultures to 225 µl of synthetic complete medium with MSG or with MSG and Hygromycin B 120 µg/mL in 96 wells plate (final concentration of 108 µg/mL). Cells were incubated in a TECAN Infinite M Nano plate reader at 37 °C for 24 h and OD was measured every 15 min.

| Molecule | DMS score Hua2 (Hua2 [1]; Abp1-Hua2 DHFR-PCA, WT = 0, Fig. S3C-D) | DMS Score (Hua2 [1]; condition HUA2_MTX2, amino acid mutation format, Fig. S3F) | DMS score Lsb3 (Lsb3) | ave_au (DMS validation) (Hua2 [2]) [au] | Ratio Mutant/WT Flag (Abp1 (1xFLAG); Western blot Flag signal of mutant relative to WT) | Flag (2 bands) (Abp1 (1xFLAG); Western blot, Flag signal, 2 bands) | Kendall's τ of PPI profile with WT Abp1 (Abp1 PPIs) | Hygromycin phenotype [3] |
| --- | --- | --- | --- | --- | --- | --- | --- | --- |
| B1 | -0.2784 | 1.334 | -0.3311 | 78.0323 | 0.6362 | 23257 | – | – |
| B2 | – | – | – | – | – | – | 0.93 | fully reproduces WT sensitivity |
